# PMC3407194
# Assays:
# Experiment in all cases: primer extension with trap
# Conditions in all cases: Primer extension: 50 mM Tris-HCl pH 8.0, 80 mM KCl, 6 mM MgCl2, 1 mM DTT, 0.1 mg/ml BSA, room temperature, 1 nM duplex; filter binding: Tris-HCl pH 8.0, 80 mM …
# [1] = biological target: T1, AMV RT (avian myeloblastosis virus) (UniProt Q83133+Q83133)
# T1 sequence 1: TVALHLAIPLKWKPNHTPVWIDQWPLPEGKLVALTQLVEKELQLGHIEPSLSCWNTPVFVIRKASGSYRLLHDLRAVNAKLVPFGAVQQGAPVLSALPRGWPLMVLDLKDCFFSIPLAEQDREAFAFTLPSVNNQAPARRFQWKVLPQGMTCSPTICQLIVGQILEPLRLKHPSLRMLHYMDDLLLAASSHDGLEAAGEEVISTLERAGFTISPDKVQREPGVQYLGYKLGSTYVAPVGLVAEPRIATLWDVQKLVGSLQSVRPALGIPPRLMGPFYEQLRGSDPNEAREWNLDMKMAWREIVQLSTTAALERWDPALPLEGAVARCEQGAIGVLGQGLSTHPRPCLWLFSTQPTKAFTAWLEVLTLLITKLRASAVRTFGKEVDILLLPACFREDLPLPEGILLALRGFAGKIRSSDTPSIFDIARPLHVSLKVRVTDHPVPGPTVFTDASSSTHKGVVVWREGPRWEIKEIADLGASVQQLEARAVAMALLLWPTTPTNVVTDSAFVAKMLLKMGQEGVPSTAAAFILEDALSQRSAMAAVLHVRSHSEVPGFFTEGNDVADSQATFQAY
# T1 sequence 2: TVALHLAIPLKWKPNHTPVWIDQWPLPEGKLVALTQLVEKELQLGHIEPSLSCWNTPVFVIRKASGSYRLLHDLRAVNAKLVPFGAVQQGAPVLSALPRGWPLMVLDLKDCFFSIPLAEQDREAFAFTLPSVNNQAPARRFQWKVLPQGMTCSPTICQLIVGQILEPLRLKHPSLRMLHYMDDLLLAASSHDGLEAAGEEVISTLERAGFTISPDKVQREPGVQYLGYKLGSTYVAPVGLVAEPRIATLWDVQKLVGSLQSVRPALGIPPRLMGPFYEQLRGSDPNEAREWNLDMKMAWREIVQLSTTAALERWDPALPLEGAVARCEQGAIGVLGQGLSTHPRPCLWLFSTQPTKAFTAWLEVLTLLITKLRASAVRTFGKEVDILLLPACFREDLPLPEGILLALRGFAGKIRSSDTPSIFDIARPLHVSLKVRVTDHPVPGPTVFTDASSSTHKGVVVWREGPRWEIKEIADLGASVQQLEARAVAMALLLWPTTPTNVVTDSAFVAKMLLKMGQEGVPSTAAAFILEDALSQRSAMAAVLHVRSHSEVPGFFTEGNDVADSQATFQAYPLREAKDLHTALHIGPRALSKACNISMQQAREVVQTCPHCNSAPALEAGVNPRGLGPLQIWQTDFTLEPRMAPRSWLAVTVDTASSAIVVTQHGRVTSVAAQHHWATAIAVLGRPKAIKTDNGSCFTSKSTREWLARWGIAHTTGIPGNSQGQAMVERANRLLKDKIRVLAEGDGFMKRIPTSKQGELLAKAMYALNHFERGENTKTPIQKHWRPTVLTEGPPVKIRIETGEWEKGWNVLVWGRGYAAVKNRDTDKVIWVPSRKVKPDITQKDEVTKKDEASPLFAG
# HIV RT (HIV) = HIV RT (HIV) (UniProt P04585+P04585)
# [2] = biological target: MuLV RT (Moloney murine leukemia virus) (UniProt P03355)
# [3] = biological target: T2, Ty3 RT (Ty3 retrotransposon) (UniProt Q99315)
# T2 sequence: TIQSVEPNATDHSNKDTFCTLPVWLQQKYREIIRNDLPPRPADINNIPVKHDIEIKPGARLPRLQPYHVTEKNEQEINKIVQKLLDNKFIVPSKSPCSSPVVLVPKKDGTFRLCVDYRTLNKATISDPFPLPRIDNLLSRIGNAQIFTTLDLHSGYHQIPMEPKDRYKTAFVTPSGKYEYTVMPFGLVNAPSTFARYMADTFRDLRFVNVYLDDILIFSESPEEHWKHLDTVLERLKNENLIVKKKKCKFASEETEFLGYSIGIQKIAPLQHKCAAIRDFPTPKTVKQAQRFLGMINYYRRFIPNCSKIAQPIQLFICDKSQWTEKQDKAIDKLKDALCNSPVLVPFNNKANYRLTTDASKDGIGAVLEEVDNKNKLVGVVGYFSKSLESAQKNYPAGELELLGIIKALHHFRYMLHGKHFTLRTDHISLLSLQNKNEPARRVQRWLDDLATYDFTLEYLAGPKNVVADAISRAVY
substance,measurement,setting,value
Random DNA,Kd,[1],20 nM
same,Kd,HIV RT (HIV),106 nM
same,Kd,[2],116 nM
same,Kd,[3],62 nM
